Results published in the DeepSol protein solubility set.

assay: soluble on expression in E. coli; label from the status in PepcDB or PDB records

Sequence	soluble on expression in E. coli
MSKLLVVKAHPLTKEESRSVRALETFLASYRETNPSDEIEILDVYAPETNMPEIDEELLSAWGALRAGAAFETLSENQQQKVARFNELTDQFLSADKVVIANPMWNLNVPTRLKAWVDTINVAGKTFQYTAEGPKPLTSGKKALHIQSNGGFYEGKDFASQYIKAILNFIGVDQVDGLFIEGIDHFPDRAEELLNTAMTKATEYGKTF	soluble
GMFNESDAPQPPKVLSTPLEIAANLRQLQESHDPLIITFHDRSHRFQSYVVHVDRESNTLALDEMIPRDGEKFIENGEHFRVEGFHDGVRIAWECDHALKISEVDGHRCYSGPLPQEVTYHQRRNAFRAALKLSQLVDIILDGAHLKGNGAMRGKLLDISATGCKLRFEGNVEDRLQLGQVYERFKAGNPLGLVDTMVELRHLHYEERINTTFAGVRFHNLSGQAQRKIESFVYQLQREARRFDKDDY	soluble
SPSAEECGYSDRVRSITLGNSTITTQESANVVVGYGRWPEYLRDDEATAEDQPTQPDVATCRFYTLESVTWEKDSPGWWWKFPDALKDMGLFGQNMYYHYLGRAGYTIHVQCNASKFHQGCLLVVCVPEAEMGCSTVDGTVNEHGLSEGETAKKFSATGTNGTNTVQSIVTNAGMGVGVGNLTIFPHQWINLRTNNCATIVMPYINNVPMDNMFRHHNFTLMIIPFVPLNYSSDFSTYVPITVTVAPMCAEYNGLRLSTALQ	soluble
MAHHHHHHMSVKNTFGTQAAKALCANLYTNWLSEDENVERIRDLLNRVLTLSATDQHSEMGAKNAASMTTAAAAAAGDKKGKAAGADALGNGARHSDPAVGLSTSSAAIHGNADRAQSPQPSPPQKSDKSAAALAADDRTPSPIQPSTSPTLIARFPGGVDELDYPHRAGSPVVTPVSPQPKPIVDPSAPLPHVGTGSLSPHGVHSLGSPRLDTTLNAAMVSGDLTIPLDASSTLSTTARESTTRFLHTSGSFAVTPPANLKQATLDEIPCFYSKRESRGLQIEVDVEEAQELSRLLEKNDPVKKTVWVFGDISSKVFKVPIWYKEALFKDIATRSGLDAATADTLTAAQIRTVYNDVYAPLSVSRRLYELICTHPKKEFITLSDLEGMGKYLVAAHPGLQFLQQPEFQEYYWHTVAVRIMYMLERQQCGRIYWRDFDRSDLPERMMELDAKDVNLVLDYFSYEHFYVLYCKFWELDTDRDLLVGFEDLCNYGQGSVVTGVIKRVVEGYGRPLSSGVPGKMDFEDFVYFCLSEEDKNSEPAVLYWFKVLDTDEDGVLSGYEMMQFFEENQQRFLEFSDSPEGDIAYEDTVCQMLDMVGFDRVKVRKYGVTLGDLRSCPTPANFFNMIFNASKFLLFEHRDPFGEHQMRLRVEKTEWDRFARAEYDRMAAEAQ	not soluble
VVKRSRATRLSPSIWSGWESPQCRSIRARLLLPRGRSRPPNADCCWNQLAVTPDTRMPASSAAGRDAAAYDAWYDSPTGRPILATEVAALRPLIEVFAQPRLEIGVGTGRFADLLGVRFGLDPSRDALMFARRRGVLVANAVGEAVPFVSRHFGAVLMAFTLCFVTDPAAIFRETRRLLADGGGLVIGFLPRGTPWADLYALRAARGQPGYRDARFYTAAELEQLLADSGFRVIARRCTLHQPPGLARYDIEAAHDGIQAGAGFVAISAVDQAHEPKDDHPLESE	not soluble
QVQLVESGGGLVQPGGSLRLSCATSGFTFTDYYMSWVRQPPGKALEWLGFIRNKANGYTTEYSASVKGRFTISRDNSQSILYLQMNTLRAEDSATYYCARDGSYAMDYWGQGTSVTVSSASTKGPSVFPLAPSSKSTSGGTAALGCLVKDYFPEPVTVSWNSGALTSGVHTFPAVLQSSGLYSLSSVVTVPSSSLGTQTYICNVNHKPSNTKVDKKVEP	soluble
MAHHHHHHMDLFSIASNLQQIAIGGVNFVNSKLRKKSATAECNYITYIVIGENEKQPYDTNIFFLPFKICGKIKLEEFKEFFPFKDNVIFRFKIPVSDLIDVINEGIVNHAPLMREDSNERNQVKHIISDENEIKNILRQDQFSHLWVDITSEEAYIPFYNGNIVVKVLFI	not soluble
MGSWSEKAFSASKLDDAIAAKFGSLPIQESTAIQIKAPEIAENGAFVPVTVATSIPGATNISIFTPANFSPMVASFDVLPRMKPEVSLRMRMAKTENLVVVVQAGGKLYRAVREVKVTIGGCGG	soluble
MSLELKITDFKVFVAQANFEWAFVRIYSKDLYGTGEAGPAPGLKGMESEFIQLLIGEDAFKVNRIAEKLRYATLYSGTTVYHLISAINIALYDLIGKYLNVPIYKLLGGDKTEIPVYVDAHGGKGLEAINALHLPVNLPWIKEAEVETNRLITTNNPVHGRLSMEKWNEDYSPEAYAKRALKMKNEGYKAMKFDLDVPTPYIDLRRVRNGDLSLKDIDYMVDIVKAVRESVGDEVEIMFDLHWRYNLNTAIRICKALEPYRLRWLEDPMPAIMAVSNYDELKLLTSQCSVPIETGENLYTVYQFKDLLNTGVRVWAPDIVKAGGITEGRRIAELAAMYDIEYSPHNIASPIGTMAHAHVGSIANTFGFVEFHGHDVPFWNEIVKPKRKIIEDGVIKLTDDPGLGIDLDDEVMRKYWPTYELEGHHHHHH	not soluble
MGSDKIHHHHHHMVKIMQYINKSKEEFLSEIYRIVAKIRLELELTTSEITISDFEFKMDSENSKNLILMIYTPTRTDKSLLIGPGGWVVGKLREKLNGSFKENLIIRVESYIDRKKELDAIENSISHLREKGLDISSKKDALVIIQCEYDLSSIDFINEYFNPIFITFDLGTALLPHKNRNRIEQVFKDKNLKYEFLSPYSLNGEQITDAISKNPCETICNNLISEMVNYAKNKNIEIVLFNHLNKDYEFRNGIHILNFLKMFPIKLNSLIHKGRSLDCPLLIQSCKRNKITKTFKIKQIVSGVYSGLVEPTEGAEEIIKYLK	not soluble
MQFEHLVQVNDRTLVDLPVLDRLQLWEGLVCRAREPQYFVVGLERFEILVDDGDRLHRRLYLPGLVVEDEVVLKAPDSAHYSIKPSAEVAGGSLDMTIEEPEPGSLFVRFAYCTRYLQPLGDELPYDAFVKQAYIAMDVETIATIRDRFGASAASGS	soluble
MRRFKQQLAGRPAAAEIPLKRWLGVASHRCPAGPKRRRHDVMTCPSTQLRLAPITTGLVRRNPRILLSGPHQPTLVRYLEGWPKRWNGSRTFLIQFAQDGKDLARFPSDAFDFAVVQAPEAEDLDLVVRQLIRVARQGLITRRILR	not soluble
MGSDKIHHHHHHMQPPLTDKQFKHTIDYDSRLLPYKYYHTCVMDGIPDILFHWHNEFEINYVYGGTARYHIDYDYFNSQAGDIILIRPNAAHSIHPIEQRGHETDTLLFHLDMLGASQLDHTSMLYLQPLQTDVFKCILRIQPQDPGYAEIRQCLLTIFELVRHQPPYFELPLKSRLFDFFYLLYRYRYIVRKNTDDMYRKNEKLRLLIEHIQQHYAENLTIEQLAEQMGYTKTHFMTIFKQQTGTSCMEFIIQVRLRAATELLTNTLKPVLEIATEVGFNNLSNFNRQFKQYYHTTPSSYRKQLRKNRTYTNFDK	not soluble
MAKIALIGASGNAGSRILKELSDRGHQVTAIARNPEKIAALPNVVAKKGDVFDQAALSELLKGHDAVISSVHFTASDPATLIEAVRASGVQRYLVVGGAGSLEIAPGQRVVDLPDFPAAYKAEATKGAEFLDKLKQEKQLDWTFLSPSAEFVPGERTGKFRIGKDNLLSNEQGSRISFEDYAIALADEIEKPQHSRQRFTVGY	not soluble
RRHKNKNPFHFNSKRFQTLFKNQYGHVRVLQRFNKRSQQLQNLRDYRILEFNSKPNTLLLPHHADADYLIVILNGTAILTLVNNDDRDSYNLQSGDALRVPAGTTYYVVNPDNDENLRMITLAIPVNKPGRFESFFLSSTQAQQSYLQGFSKNILEASYDTKFEEINKVLFGREEGQQQGEERLQESVIVEISKKQIRELSKHAKSSSRKTISSEDKPFNLRSRDPIYSNKLGKLFEITPEKNPQLRDLDVFLSVVDMNEGALFLPHFNSKAIVVLVINEGEANIELVGIKEQQQRQQQEEQPLEVRKYRAELSEQDIFVIPAGYPVVVNATSDLNFFAFGINAENNQRNFLAGSKDNVISQIPSQVQELAFPGSAKDIENLIKSQSESYFVDAQPQQKEEGNKGRKGPLSSILRAFY	soluble
MSLGEESRDPVAALRLIKHDQQANLYVLCDLHPFLGDSPTLVRLLKEIAMAEGNHRPTVVLVSHALKLPAEVQRFAARFSLSLPSEDELLGIVREEATRWSERNRGARVRTDNRTLQQVVKNLRGLSHAEARLLARNVICNDGAITQEDLPELNRTKFQLLDLEGVLSFEYDTARFAEVGGLAALKRWLGERQSAFLAGKPGDQPKGMMLVGVQGAGKSLAAKAVAGLWGLPLLRLDFACLYNKYFGETERNLREALRLAEQMAPCVLWMDEVEKGISGGDQDNGVSQRVLGTLLTWMAEREAPVFMVATANAIDRLPPELIRKGRFDELFFVDLPTPEVRAEIFRIHLQRRELEPAQFDLHLLAAASEGFSGAEIEQAVVAALYAGQARQQAVDQDLLLRELARTSPLSVLMAEKLAALRTWAKGRAVPADEGHHHHHH	not soluble
MAHHHHHHMNTFFLSRFRGGTFFLQKYEKIWNRAKGYHTYNYIFQNNKNIINHKKKNRNLFLYEKRNFYTSNDGKKYTKKFWNHLGFVIIPQETAYIVERLGKYNKTLLAGIHFLIPFIDKIAYVFSLKEETITIPNQTAITKDNVTLNIDGVLYIKCDNPYNSSYAIEDAVFAVTQLAQVTMRSELGKLTLDATFLERDNLNEKLVKAINESAKNWGIKCMRYEIRDIILPVNIKNAMEKQAEAERRKRAEILQSEGERESEINIAIGKKRKSILIAEGQSFAIKAKADATAEAIEIISNKIKKLDSNNAISLLVAEQYIDVFSNICKNNNTVIIPADLNNISSLISQSLSIYNNIQNSKKENNQIHTLPIQKQIHSDMNN	not soluble
MGLLVDGRWQDQWYESSKDGAFQRENAQRRNWVTRDGQAGPSGEGGFAAEAGRYHLYVSLACPWAHRTLILRKLKGLEKLIDVSVVSWLMLENGWTFDQQKGSSGDALDDFQFFHQRYTADDPRYTGRVTVPVLWDKQQQRIVSNESAEIIRMFNAAFDELTGNTLDFYPSALQSSIDELNEQIYPKVNNGVYRAGFATSQGAYEEAFDDVFAELDVLENLLGEKRYLTGKHLTEADIRLFTTIVRFDAVYYSHFKCNLRRIADYPNLSNWLRELYQWPGIAETVDFEHIKGHYYASHRTINPTGIIPKGPALDLQAGHDRERLSGEGAWSK	not soluble
MGSDKIHHHHHHMKKRLGSQTARIDSKPRIVSAVSMVGPKEGRGPLKDYFDIILSDDMNGEESFEKAESNMLYTVITEVIKKSNLTENDIDYLFAGDLLNQITSSSFAARDAKIPFYGLYGACSTMTESLSIAAMIMDGGFADYTIAATSSHFSAAERQFRYPLEYGSQRKPDAQWTVTGAGAMLLARQGDFPYITFVTAGKVKDYGITSPDSMGEAMAPAAVDTIKQHFKDTGRTPQDYDVIATGDLGRVGKKITEDLLKKEYGYDMSNIYMDCGEKIFNCDEQDTNSGGSGCGCSAVVDCGYIYKNMLSGKIKKALLISTGALMSTTSNLQGESIPGIAHAVSIEFGGMKNE	not soluble
MSDVENASLPPAIFIMGPTASGKTALAMTLREYLPVELISVDSALIYKDMDIGTAKPSADELARAPHRLIDILDPTESYSAADFRRDALREMADITAAGRIPLLVGGTMLYFKALLEGLSPLPPADAAVRQRIEEQAKEIGWEAMHRQLSEIDPTAAIRIHPNDPQRLSRALEVFFISGNTLTELTKTSGDALPYQVHQFAIAPAMRELLHQRIEQRFHQMLAAGFETEARALFARHDLHTDMPSIRCVGYRQMWSYLSGEIDYDEMVYRGVCATRQLAKRQMTWLRGWDDVCWLDSENPTEALDKVIQVVSALEHHHHHH	soluble
